In publication PMC7279355, “Preparation of Biphenyl-Conjugated Bromotyrosine for Inhibition of PD-1/PD-L1 Immune Checkpoint Interactions” (International Journal of Molecular Sciences, 2020):

Tests used:
[1] = target: PD-L1, histidine (His)-tagged (UniProt Q9NZQ7); assay: AlphaScreen or HTRF; AlphaLISA kit AL356 HV/C/F (PerkinElmer), competition: biotin-conjugated PD-1 on streptavidin-coated donor beads, His-tagged PD-L1 on anti-His acceptor beads; 2 uL each of inhibitor dilution, PD-L1 (25 nM), PD-1 (25 nM) and the two beads in 10 uL; 25 °C, 90 min; IC50 from sigmoidal fit
PD-L1 (Homo sapiens) = PD-L1 (Homo sapiens) (UniProt Q9NZQ7); conditions: cited from earlier work
PD-L1 (Homo sapiens), sequence (Q9NZQ7 19-238): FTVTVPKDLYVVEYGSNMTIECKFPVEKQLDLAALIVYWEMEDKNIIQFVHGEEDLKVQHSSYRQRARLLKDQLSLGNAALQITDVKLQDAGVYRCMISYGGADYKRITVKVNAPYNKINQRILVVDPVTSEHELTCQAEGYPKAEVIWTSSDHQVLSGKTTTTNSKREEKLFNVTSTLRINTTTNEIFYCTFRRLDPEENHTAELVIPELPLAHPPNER

PD-L1, histidine (His)-tagged, sequence (Q9NZQ7 19-238): as above
PD-1, sequence (Q15116 25-170): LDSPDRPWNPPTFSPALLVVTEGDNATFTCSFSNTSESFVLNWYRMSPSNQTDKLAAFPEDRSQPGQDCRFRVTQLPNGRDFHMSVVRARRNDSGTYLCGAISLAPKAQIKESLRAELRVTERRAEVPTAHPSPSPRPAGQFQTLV

Row | Substance | IC50 [1] [µM] | Kd (PD-L1 (Homo sapiens)) [µM]
1 | CERXNKM (peptide) | 308 | 
2 | FWRXNNI (peptide) | 312 | 
3 | PD-1 (from UniProt Q15116) |  | 6.4
